Test results from article PMC2957411.

Assays:
[1] = biological target: T1, His6-HrpL (alternative sigma factor);core RNA polymerase (Epicentre) (Dickeya dadantii 3937;) (UniProt E0SE58+P0A7Z4+P0A8V2+P0A8T7+P0A800); experiment: EMSA
[2] = biological target: T1, His6-HrpL (alternative sigma factor);core RNA polymerase (Epicentre) (Dickeya dadantii 3937;); experiment: competition

## AAGTATCTGCAACGGATGCCCGCTCCGATCCCGATGCGGGCATCATGATGGATACTGGTTAATGAGTGACGCCAGCGGTGAAACGGTTCCCTGCCGTCGCCGGTTCGCCGCAAAAAAAGAAACCG (double strand) [hrpN promoter fragment with hrp box]
[1]
  binding: binds

## CTTGGTGGCTGAGTCCATCTGGCCGTCGGTGATTGAGCTGATAGCATCGGTTTTCATTTTCTGCTCCTGGGCAGCGGTGGTCATCGCCGTGGTCGATGCCATGGTTTTGTCCAGAGACTGC (double strand) [hrpA ORF internal fragment (hrpAORF), no hrp box]
[2]
  binding: no binding

## GATTTCGCTATGAACTTTGCGACTTACACAGTCATCGTGTTCATAGATTAAGTAGGAGATAATGCGAGGTGGTTCCGAAAGATATTCACTTTTTTCCCCTGGTGGTGATAACAGGATACAGCC (double strand) [hrpA promoter fragment with hrp box]
[1]
  binding: binds
